Laboratory results published in IntAct's records for PubMed 19940251.

B1: DNA replication regulator protein HobA (Helicobacter pylori), O25828 (parent)
chain: MKNFYDWIKEFVRDQGEFIAQQSGWLELERSSYAKLIAQTISHVLNGGSLLVSADSSRHWFLNYILSNLNPKDLKERPLLSVIDFNASSFYPKNDANLSLATIEMTYQNPMFWHVGKIENEGLKTILLSKIPSFLWLFEELKEDCLLLKEHDSLLDYKLLQLFKLFENALFSVLYNKVTL
partner: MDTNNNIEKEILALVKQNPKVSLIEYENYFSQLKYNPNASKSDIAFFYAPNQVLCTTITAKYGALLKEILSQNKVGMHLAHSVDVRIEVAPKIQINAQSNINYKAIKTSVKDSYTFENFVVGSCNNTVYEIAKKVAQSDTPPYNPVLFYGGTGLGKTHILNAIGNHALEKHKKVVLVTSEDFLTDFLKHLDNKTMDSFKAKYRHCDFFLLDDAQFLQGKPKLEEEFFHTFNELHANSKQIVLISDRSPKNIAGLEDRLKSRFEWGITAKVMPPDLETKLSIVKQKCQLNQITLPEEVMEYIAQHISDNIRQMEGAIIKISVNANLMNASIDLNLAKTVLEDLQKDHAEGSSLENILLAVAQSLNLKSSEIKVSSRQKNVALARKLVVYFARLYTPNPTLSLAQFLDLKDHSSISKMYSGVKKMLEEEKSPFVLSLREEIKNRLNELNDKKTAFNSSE

Variants of: B1
Details: with dnaa_helpy dnaA

Variant | effect of a mutation on the interaction
L69P | disrupting interaction
S67P | decreasing interaction
S88P | disrupting interaction
L127P | disrupting interaction
F138S | decreasing interaction
L51S | disrupting interaction strength
L51F | disrupting interaction strength
L137P | decreasing interaction
H43R | decreasing interaction
F166S | decreasing interaction

Variants of: B1
Details: with dnaa_helpy dnaA
Remark: another data set of the same source

Variant | effect of a mutation on the interaction
L128P | disrupting interaction
L146S | disrupting interaction
S67P | disrupting interaction
L174P | disrupting interaction
I41T | disrupting interaction
R77C | decreasing interaction
L170P | disrupting interaction
L45P | disrupting interaction
V82A | decreasing interaction
V44A | decreasing interaction
L141P | disrupting interaction
V115D | disrupting interaction
L162P | disrupting interaction
F112S | disrupting interaction
Y107H | decreasing interaction
S99P | decreasing interaction
F138L | disrupting interaction strength
F138S | disrupting interaction strength
M111V | decreasing interaction
A169V | disrupting interaction
F61C | disrupting interaction
E119G | disrupting interaction
D55G | disrupting interaction
L51F | decreasing interaction
I83M | decreasing interaction
H43R | disrupting interaction
I118T | disrupting interaction

Variants of: B1
Details: with dnaa_helpy dnaA
Remark: another data set of the same source

Variant | effect of a mutation on the interaction
Y175E | disrupting interaction
E76A;R77A;P78A | disrupting interaction
L80R | disrupting interaction
